Laboratory results published in PMC4164784, “4E-BPs require non-canonical 4E-binding motifs and a lateral surface of eIF4E to repress translation” (Nature Communications, 2014).
Entries after “also recorded” stand apart in the source; their conditions may differ.

Tests used:
[1] = biological target: T1, SHN-eIF4E (full length, WT) (Drosophila melanogaster, UniProt P48598-2 1-248); test: pull-down; preassembled complexes of SHN-eIF4E (WT or II-AA) with GST-eIF4G, GST-CUP, GST-Thor or GST-4E-T (coexpressed, purified on glutathione agarose) recovered on Strep-Tactin beads; details: both partners purified
T1 construct: eIF4E, Drosophila melanogaster; also called SHN-tagged eIF4E; SNH-tagged eIF4E; not shown: Strep-NusA-His (SHN), N-terminal, kept
T1 sequence (looked up): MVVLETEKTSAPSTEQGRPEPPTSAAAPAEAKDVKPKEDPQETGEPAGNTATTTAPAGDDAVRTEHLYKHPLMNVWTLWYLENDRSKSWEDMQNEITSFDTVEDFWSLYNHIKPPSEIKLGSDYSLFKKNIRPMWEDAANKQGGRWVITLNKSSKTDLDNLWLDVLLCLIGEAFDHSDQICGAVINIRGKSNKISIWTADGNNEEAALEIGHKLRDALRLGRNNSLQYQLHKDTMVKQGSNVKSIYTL

[2] = tested on: eIF4E II-AA (lateral surface mutant); test: Coimmunoprecipitation with HA-eIF4E II-AA in S2 cells; assay type: cell-based, Drosophila melanogaster; details: HA-eIF4E II-AA vs WT, western blot
Procedure: (§1) The coimmunoprecipitations assays were performed as previously described. For the pull downs using m^7GTP beads, 25 μl of immobilized γ-aminophenyl-m^7GTP (C10-spacer—Jena Bioscience) beads was added to the cell lysates and the mixtures were rotated for 1 h at 4 °C. The beads were washed three times with NET buffer (50 mM Tris (pH 7.4), 150 mM NaCl, 1 mM EDTA and 0.1% Triton X-100). The bound proteins were eluted with 2 × SDS–polyacrylamide gel electrophoresis (SDS–PAGE) sample buffer and analyzed by western blotting (WB). All of the WB experiments were developed with the ECL western blotting detection system (GE Healthcare) as recommended by the manufacturer. The antibodies used in this study are listed in Supplementary Table 2.

[3] = tested on: firefly luciferase (F-Luc) reporter in S2 cells; test: Translation repression assay, F-Luc reporter in S2 cells; assay type: cell-based, Drosophila melanogaster; details: overexpression, C.I. and E.I., unpublished results
Procedure: S2 cells were transfected in 6-well plates using Effectene transfection reagent (Qiagen) according to the manufacturers protocol. The transfection mixtures contained: 0.1 μg of F-Luc reporter plasmid (F-Luc-V5), 0.3 μg of control RNA reporter, and increasing amounts of plasmids expressing HA-CUP (fragment 1–402; 0.05–0.2 μg) and HA-Thor (full length, 0.1–0.5 μg). The plasmids expressing the corresponding mutants or the HA peptide control were transfected at the highest concentration. In all the experiments, the cells were collected three days after transfection. The F-Luc activity was measured using the Dual-Luciferase reporter assay system (Promega). The northern blotting was performed as previously described. The F-Luc mRNA levels were determined by northern blotting and were normalized to those of the control RNA. The normalized F-Luc mRNA levels were then used to normalize the F-Luc activity, to obtain translation efficiencies.

[4] = tested on: endogenous eIF4E and HA-tagged 4E-BPs in S2 cells; test: Immunofluorescence localization in S2 cells; assay type: cell-based, Drosophila melanogaster
Procedure: S2 cells expressing HA-tagged versions of CUP, Thor and 4E-T or the indicated mutants were treated with Leptomycin B (100 nM; Sigma) or methanol as a control for 12 h. After the LMB treatment, the cells were allowed to adhere to poly-D-lysine–coated coverslips for 15 min and were fixed with 2% paraformaldehyde for 10 min. The cells were then permeabilized with 0.1% Triton X-100 in PBS (10 min) and stained with affinity-purified monoclonal anti-HA (Covance 1:1,000) and polyclonal anti-eIF4E (1:2,000) antibodies in PBS containing 1% BSA for 1 h. Alexa Fluor 594-labeled goat anti-rabbit and 488-labeled anti-mouse antibodies (Invitrogen) were used at dilutions of 1:1,000 and 1:2,000, respectively. The cells were mounted using Fluoromount-G (Southern Biotech). The images were acquired at room temperature using a confocal microscope (TCS SP2; Leica) that was fitted with a Plan-Apochromat × 100 NA 1.40 oil immersion objective and a series of three photomultipliers (Hamamatsu Photonics) controlled with the Leica confocal software (version 2.61). The images were prepared using Photoshop (Adobe). […]
Thor) independent experiments. […] Confocal fluorescent […]
micrographs of fixed S2 cells expressing HA-4E-T and GFP-Tral. The localization of HA-4E-T was determined by indirect immunofluorescence using an anti-HA antibody. The merged pictures show the HA signal in red and the GFP-Tral signal in green. Bar: 5 μm.

endogenous eIF4E = test: Coimmunoprecipitation / m7GTP pull-down with endogenous eIF4E in S2 cell lysates; assay type: cell-based, Drosophila melanogaster; details: western blot
Procedure: as §1
Thor and 4E-T) or HA-eIF4G and endogenous eIF4E in S2 cell lysates. The proteins were immunoprecipitated using a polyclonal anti-eIF4E antibody (α-4E). The pre-immune (Pre-I) serum and an HA-tagged version of MBP served as negative controls. The inputs (1%) and immunoprecipitates (10%) were analyzed by western blotting using anti-HA and anti-eIF4E antibodies. (b,c) The interaction of HA-tagged full length 4E-BPs (CUP, Thor and 4E-T) and eIF4G with endogenous eIF4E was analyzed by coimmunoprecipitation using anti-HA antibodies (b) or by pull-down using m7GTP-Sepharose beads (c). HA-MBP served as a negative control. The inputs (10%) and immunoprecipitates (30%) were analyzed by western blotting using anti-HA and anti-eIF4E antibodies. (d) Western blot showing the interaction of HA-Thor (full-length either wild-type or mutants) with endogenous eIF4E in S2 cells. The proteins were immunoprecipitated using anti-HA antibodies and analyzed as described in (b,c). (e) Western blot showing the interaction of HA-4E-T (residues 1–511, wild-type or mutants) with endogenous eIF4E. The proteins were immunoprecipitated using anti-HA antibodies and analyzed as described in (b,c). The size markers (kDa) are shown to the right of each panel. Mutants are described in Supplementary Table 1.

[5] = tested on: eIF4E II-AA mutant (full length); test: GST/MBP pull-down of full-length eIF4E II-AA mutant, coexpressed in E. coli; assay type: binding, Drosophila melanogaster; details: recombinant CUP (311–440), Thor (full length), 4E-T (1–58) or eIF4G (578–650), WT or mutant, SDS–PAGE
Procedure: (§2) For the pull-down assays shown in Fig. 3 and Supplementary Fig. 6a, the full-length His6- or SHN-tagged eIF4E (WT or II-AA mutant) was coexpressed with GST or MBP-tagged protein fragments, including CUP (residues 311–440), Thor (full length), 4E-T (residues 1–58) or eIF4G (residues 578–650) in E. coli BL21 (DE3) STAR cells in autoinducing medium[44] overnight at 20 °C. The cells were resuspended in lysis buffer (20 mM Tris–HCl (pH 7.5), 100 mM NaCl, 1 mM DTT) supplemented with EDTA-free protease inhibitor (Roche) and lysed by sonication. The cleared lysates were incubated for 1 h with 20 μl of Protino Glutathione Agarose 4B beads (Macherey-Nagel) or amylose resin (New England Biolabs). The beads were washed three times with lysis buffer, and the bound proteins were eluted with lysis buffer containing 25 mM L-glutathione or 25 mM maltose for 15 min. The proteins were analyzed by 10–15% SDS–PAGE followed by Coomassie blue staining.

eIF4E (full length, WT) = test: GST/MBP pull-down of full-length WT eIF4E, coexpressed in E. coli; assay type: binding, Drosophila melanogaster; details: recombinant CUP (311–440), Thor (full length), 4E-T (1–58) or eIF4G (578–650), WT or mutant, SDS–PAGE
Procedure: as §2

[6] = biological target: T2, eIF4E–eIF4G complex (eIF4E WT; eIF4G residues 578–650) (Drosophila melanogaster, UniProt P48598); test: Competition assay, displacement of GST-eIF4G from preassembled eIF4E (WT)–eIF4G complexes; assay type: biochemical; details: Fig. 5a,c; fivefold molar excess of MBP-tagged competitor, 30 min at 4 °C, m7GTP or Strep-Tactin pull down
T2 construct: full-length eIF4E (WT or the II-AA mutant) containing an N-terminal SNH-tag was coexpressed; made in house; host or cells: E. coli BL21 Star (DE3), coexpression
T2 sequence (P48598 1-248 isoform P48598-2): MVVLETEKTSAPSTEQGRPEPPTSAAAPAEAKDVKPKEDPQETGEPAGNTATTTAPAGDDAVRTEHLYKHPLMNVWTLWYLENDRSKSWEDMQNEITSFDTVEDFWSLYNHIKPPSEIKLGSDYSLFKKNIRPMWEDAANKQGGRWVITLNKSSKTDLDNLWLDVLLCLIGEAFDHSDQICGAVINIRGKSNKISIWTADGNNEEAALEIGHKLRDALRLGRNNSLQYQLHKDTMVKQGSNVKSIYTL
Procedure: For the competition assays shown in Figs 5a,c and 6a,b, complexes containing SHN- or MBP-tagged eIF4E (WT or II-AA mutant) bound to GST-eIF4G (residues 578–650), GST-Thor (full length), GST-4E-T (residues 1–58) or GST-CUP (311–440) were obtained by coexpressing the corresponding proteins in E. coli BL21 (DE3) STAR cells (30 ml culture). The cells were resuspended in lysis buffer (5 ml) that was supplemented with EDTA-free protease inhibitor (Roche) and 1 mg ml^−1 lysozyme and lysed by sonication. The cleared lysates were incubated with 400 μl of Protino Glutathione Agarose 4B (Macherey-Nagel) for 1 h. The beads were washed three times with lysis buffer, and the proteins were eluted after 10 min of incubation with lysis buffer containing 25 mM L-glutathione. The protein complexes were stored at −20 °C or used in competition assays.
The purified recombinant complexes were mixed with excess amounts of the indicated purified competitor proteins (Fig. 5c) or with bacterial lysates expressing the competitor proteins (Figs 5a and 6) and incubated for 30 min at 4 °C. After incubation, 20 μl of immobilized γ-Aminophenyl-m^7GTP or Strep-Tactin Sepharose (IBA), were added to the samples and incubated for another 40 min at 4 °C. The beads were washed three times with lysis buffer and eluted with lysis buffer containing 2.5 mM desthiobiotin (Strep-Tactin Sepharose) or with 20 μl of SDS–PAGE loading buffer (Aminophenyl-m^7GTP beads). The proteins were analyzed by 10–15% SDS–PAGE followed by staining with Coomassie blue staining. […]

B1: GST-Thor (full length) (natural protein, Drosophila melanogaster, UniProt Q9XZ56 1-117, looked up)
chain: MSASPTARQAITQALPMITRKVVISDPIQMPEVYSSTPGGTLYSTTPGGTKLIYERAFMKNLRGSPLSQTPPSNVPSCLLRGTPRTPFRKCVPVPTELIKQTKSLKIEDQEQFQLDL
notes: Thor, Drosophila melanogaster; source: E. coli BL21 (DE3) STAR, coexpressed with SHN-eIF4E, complex purified on glutathione agarose
B1: binds [1].

B2: 4E-T: Dm 4E-transporter (1–1010), Q8IH18; residues 1–58 in pull-down assays (protein)
chain: MDTSKISARYSKVDLLALRYEGKSRQRPQCSTRLELQTLGFWKINLNTAALTVSSAYSNQNKNRLSPEADNSSLICSNSSSISSRRAMRNRERANNYYQRFVPTDSLLISGEDKDKDALSHGQPYKLNIIDHRSISSSHLMPAFAKRRFVISKGSNSEESNEGINTCASKGKAASSPSRKGSELDTAETCLNFVQPDHDQCMSSSPTFSTSRQERRIGSGRLLPRSDNWDYKNEKTVEASIENEKETSPNGSGSTSSLNQHNQSQHRSRTFSGRLVERVPEVTDRRFQYDSKKSFDRQGINNRRISGKEPFSTQSRSKRGNSYLIHEEPEWFSAGPKSQLETIDLHGFEDLEKNEERSVTEDKNNQIQQLDKNLDAQASKDEASMRNSNDSLNFREVIPSDEKKHTDENVVTSIQNSTDLGHPNKNKPIQMQPSQNPESEFNFDAFLNMHPLDNSVLSNDETGKSDSKGTSRFSRWFRQKEAANNNEFPGFRESHAQEKRGIPSVKDLEAQMIKVDMRTDLINPIAGSLCQTVQMEKPIARDTEAFKKLLQQLGSQARQHHPCNDDCRTINLSNIANHVHLESKLHQKINDGHLQQPELSVNVPTMPTSSHVFLQKRLEIQHLIQRLHCGDVSHDFLEKELDNPSTPAATKDVIATVLNEYSHSKRNPVVTGDPNIFTQQSFLQPQSVHQHYSQELHSQNTANHTINQLISHGNSPTPLAFTPTSVLRKMTADKDTQSPSTYCQNPQYHVHQQNAKQVGTRENVLEPQLTATMAVQPRMILGGGNFAIGQNNQHLSPNMSQSRNQQVLKWTSGNMQMVHGKTFGRPILKGGLNSMPHSNSALPFTAHKIEMQPIHQPHLQQQQHRFKAVQSVESNLNTESVHQNITSPVGWHQLYMQHQQQHHHTRQQLSQRVIYGEMHRQSNPQMSPPVPGFSDSSDSGNVIKANSLTSPSYQRDERISSPTNQLAQWFSPELLAKASAGKLPLLNVNQALSLEEFERSIQHSSGVVHN
modifications: left off: GFP, end not stated, kept
notes: Dm 4E-transporter (1–1010), Q8IH18; residues 1–58 in pull-down assays
For B2, the “association with eIF4E II-AA (in words)” value [2] was “disrupted the association”, the “effect on mRNA upon overexpression (in words)” value [3] was “caused mRNA degradation when overexpressed” and the “nuclear accumulation of endogenous eIF4E upon LMB (in words)” value ([4]; S2 cells expressing 4E-BP or mutant, LMB 100 nM, 12 h) was “endogenous eIF4E accumulated in the nucleus”. For the same molecule, the “localization of endogenous eIF4E (in words)” value ([4]; S2 cells overexpressing 4E-BP or mutant, −LMB) was “detected in P-bodies”, the “nuclear accumulation of 4E-BP upon LMB (in words)” value ([4]; S2 cells, LMB 100 nM, 12 h) was “nuclear accumulation” and the “localization of the 4E-BP (in words)” value ([4]; S2 cells, steady-state, −LMB) was “localizes to P-bodies; also recorded: accumulated in cytoplasmic foci, which correspond to P-bodies”. The “interaction with endogenous eIF4E (in words)” value (endogenous eIF4E) was “interacted with endogenous eIF4E” and the “binding to eIF4E II-AA mutant (in words)” value [5] was “pulled down comparable amounts of WT and mutant eIF4E”.

B3: Thor ΔNC: Thor ∆76–84, non-canonical motif deleted (protein)
chain: MSASPTARQAITQALPMITRKVVISDPIQMPEVYSSTPGGTLYSTTPGGTKLIYERAFMKNLRGSPLSQTPPSNVRTPFRKCVPVPTELIKQTKSLKIEDQEQFQLDL
modifications: left off: HA (λN-HA, from the vector pAc5.1-λN-HA), end not stated, kept | V5, end not stated, state not stated
notes: Thor ∆76–84, non-canonical motif deleted
In the case of B3, the “binding to WT eIF4E (in words)” value (eIF4E (full length, WT)) is reported as “The results obtained for the Thor NC* and C+NC* mutants were confirmed; also recorded: interacted with eIF4E”, the “competition with eIF4G for eIF4E WT (in words)” value [6] is reported as “abolish its ability to compete with eIF4G” and the “interaction with endogenous eIF4E (in words)” value (endogenous eIF4E) is reported as “abolished the interaction with eIF4E”.
